PMC10849712 (bioRxiv, 2024)

T1: single CIDRα1.4 domain of HB3VAR03 PfEMP1 (crystallised with C7 Fab) (Plasmodium falciparum HB3 (HB3VAR03), strain)
T1 chain: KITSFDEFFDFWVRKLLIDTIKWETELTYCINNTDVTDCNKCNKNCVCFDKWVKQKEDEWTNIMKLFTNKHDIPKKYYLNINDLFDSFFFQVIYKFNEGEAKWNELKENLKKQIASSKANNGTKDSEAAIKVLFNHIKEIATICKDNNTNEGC

T2: three-domain protein of HB3VAR03 PfEMP1 (NTS-DBLα-CIDRα1.4-DBLβ) (Plasmodium falciparum HB3 (HB3VAR03), strain)
T2 chain: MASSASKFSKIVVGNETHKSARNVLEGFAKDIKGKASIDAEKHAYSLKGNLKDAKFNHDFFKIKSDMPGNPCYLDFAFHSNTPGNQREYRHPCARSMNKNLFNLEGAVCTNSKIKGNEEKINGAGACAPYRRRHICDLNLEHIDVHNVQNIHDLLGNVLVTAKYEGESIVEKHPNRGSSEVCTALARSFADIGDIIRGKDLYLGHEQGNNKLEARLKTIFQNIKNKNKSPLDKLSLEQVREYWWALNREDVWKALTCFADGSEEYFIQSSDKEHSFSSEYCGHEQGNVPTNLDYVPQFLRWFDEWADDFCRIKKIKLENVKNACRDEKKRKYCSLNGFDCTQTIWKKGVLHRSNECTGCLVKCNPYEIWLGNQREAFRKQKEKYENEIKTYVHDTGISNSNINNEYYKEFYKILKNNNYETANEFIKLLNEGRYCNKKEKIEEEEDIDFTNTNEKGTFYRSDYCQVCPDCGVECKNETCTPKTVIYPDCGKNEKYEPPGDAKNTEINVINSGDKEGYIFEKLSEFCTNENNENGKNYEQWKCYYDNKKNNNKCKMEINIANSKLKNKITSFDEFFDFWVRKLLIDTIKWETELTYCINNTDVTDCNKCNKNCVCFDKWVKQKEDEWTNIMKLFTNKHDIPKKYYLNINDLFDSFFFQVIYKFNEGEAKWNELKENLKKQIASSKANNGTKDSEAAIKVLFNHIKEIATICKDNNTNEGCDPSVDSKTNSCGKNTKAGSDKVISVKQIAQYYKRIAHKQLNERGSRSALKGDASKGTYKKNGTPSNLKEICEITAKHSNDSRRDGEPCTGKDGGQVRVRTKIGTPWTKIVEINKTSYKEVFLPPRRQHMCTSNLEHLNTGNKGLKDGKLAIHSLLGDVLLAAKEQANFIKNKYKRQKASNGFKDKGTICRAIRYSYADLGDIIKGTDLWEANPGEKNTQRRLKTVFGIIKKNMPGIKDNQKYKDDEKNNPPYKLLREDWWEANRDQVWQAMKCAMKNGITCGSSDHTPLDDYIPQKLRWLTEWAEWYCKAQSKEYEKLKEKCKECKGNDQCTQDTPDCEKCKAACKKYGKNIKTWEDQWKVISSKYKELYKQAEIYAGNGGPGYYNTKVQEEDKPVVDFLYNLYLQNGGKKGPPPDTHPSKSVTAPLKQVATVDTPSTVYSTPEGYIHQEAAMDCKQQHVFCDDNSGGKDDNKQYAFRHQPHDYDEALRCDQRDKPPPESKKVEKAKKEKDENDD

T3: three-domain protein of IT4VAR22 PfEMP1 (NTSA-DBLα-CIDRα1.7-DBLβ) (Plasmodium falciparum IT4 (IT4VAR22), strain)
T3 chain: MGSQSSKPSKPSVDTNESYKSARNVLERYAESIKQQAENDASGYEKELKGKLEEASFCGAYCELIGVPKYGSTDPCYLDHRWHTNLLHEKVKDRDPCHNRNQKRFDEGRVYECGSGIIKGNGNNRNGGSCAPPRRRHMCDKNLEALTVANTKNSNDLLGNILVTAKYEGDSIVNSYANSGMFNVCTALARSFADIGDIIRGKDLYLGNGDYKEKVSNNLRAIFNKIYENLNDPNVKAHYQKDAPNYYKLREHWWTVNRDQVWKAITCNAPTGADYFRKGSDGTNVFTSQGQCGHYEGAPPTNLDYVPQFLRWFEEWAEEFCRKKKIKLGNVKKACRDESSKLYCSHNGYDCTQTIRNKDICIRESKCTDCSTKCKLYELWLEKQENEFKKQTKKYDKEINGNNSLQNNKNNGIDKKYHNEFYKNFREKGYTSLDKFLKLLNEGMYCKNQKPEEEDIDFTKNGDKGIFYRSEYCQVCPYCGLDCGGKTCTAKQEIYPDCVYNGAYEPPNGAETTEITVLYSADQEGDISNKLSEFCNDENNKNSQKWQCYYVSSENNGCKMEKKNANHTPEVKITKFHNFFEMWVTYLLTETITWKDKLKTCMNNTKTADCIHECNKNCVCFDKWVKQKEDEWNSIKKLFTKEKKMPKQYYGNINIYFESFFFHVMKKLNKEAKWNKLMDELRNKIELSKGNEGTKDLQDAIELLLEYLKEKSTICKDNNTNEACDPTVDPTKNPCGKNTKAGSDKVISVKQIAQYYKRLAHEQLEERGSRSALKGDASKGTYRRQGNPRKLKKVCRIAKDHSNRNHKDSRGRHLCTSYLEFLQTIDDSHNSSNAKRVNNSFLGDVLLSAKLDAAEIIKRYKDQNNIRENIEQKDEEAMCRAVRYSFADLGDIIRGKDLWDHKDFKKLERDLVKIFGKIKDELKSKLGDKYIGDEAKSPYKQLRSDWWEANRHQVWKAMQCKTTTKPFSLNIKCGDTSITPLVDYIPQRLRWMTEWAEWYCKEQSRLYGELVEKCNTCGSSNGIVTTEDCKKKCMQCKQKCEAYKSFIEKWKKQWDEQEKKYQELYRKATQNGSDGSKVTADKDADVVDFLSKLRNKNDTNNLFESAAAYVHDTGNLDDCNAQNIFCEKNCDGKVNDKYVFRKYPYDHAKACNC

B1: mAb C7, recombinant IgG1 (antibody, V domains shown)
VH: EVQLVESGGGLAQPGGSLRLSCAASGFTFRDHGMTWVRQVSGKGLEWLSYITAGSKMSYYSDSVRGRFTISRDNAKNSLYLQMNGLTDEDSAIYYCVKGGGNCPSDTCYPSGYFGLDVWGQGTTVTVSS
VL: QSELTQPPSMSVSPGQTAMITCSMNKYSYISWYQQRPGQSPALVIYQDTRRPSGIPERFSGSNSENTAILTITGTRDLDEADYFCQGWDSNVKAVLFGGGTKLTVL
B2: C7 Fab (Fab, V domains shown)
VH: EVQLVESGGGLAQPGGSLRLSCAASGFTFRDHGMTWVRQVSGKGLEWLSYITAGSKMSYYSDSVRGRFTISRDNAKNSLYLQMNGLTDEDSAIYYCVKGGGNCPSDTCYPSGYFGLDVWGQGTTVTVSS
VL: QSELTQPPSMSVSPGQTAMITCSMNKYSYISWYQQRPGQSPALVIYQDTRRPSGIPERFSGSNSENTAILTITGTRDLDEADYFCQGWDSNVKAVLFGGGTKLTVL
B3: mAb C74, recombinant IgG1 (antibody, V domains shown)
VH: EVQLVQSGGALVRPGGSLRLSCAASGFDFSDFEMNWVRQAPGKGLEWISYISKISAASFYADSVEGRFTISRDNTKNLLWLEMTSLRDEDTAVYYCARDLPGYLERVFDLWGQGTLVSVSS
VL: EIVLTQSPATLSLSPGEDATLSCRASQSVGSALAWYQHRPGQSPRLLIYDASTRATGIPARFSGSGSGTEFTLTVSSLTSEDFAVYYCQEYKNSVPPTWTFGQGTKVEIK
B4: C74 Fab (Fab, V domains shown)
VH: EVQLVQSGGALVRPGGSLRLSCAASGFDFSDFEMNWVRQAPGKGLEWISYISKISAASFYADSVEGRFTISRDNTKNLLWLEMTSLRDEDTAVYYCARDLPGYLERVFDLWGQGTLVSVSS
VL: EIVLTQSPATLSLSPGEDATLSCRASQSVGSALAWYQHRPGQSPRLLIYDASTRATGIPARFSGSGSGTEFTLTVSSLTSEDFAVYYCQEYKNSVPPTWTFGQGTKVEIK

Columns and labels:
[1] = biological target: native IT4VAR18 PfEMP1 (CIDRα1.6) on P. falciparum-infected erythrocytes (Plasmodium falciparum, clone IT4 …, UniProt A3R6S2, strain); experiment: flow cytometry on cells
[2] = biological target: native IT4VAR19 PfEMP1 (CIDRα1.1) on P. falciparum-infected erythrocytes (Plasmodium falciparum, clone IT4 …, UniProt A3R6S3, strain); experiment: flow cytometry on cells
[3] = biological target: native HB3VAR03 PfEMP1 (CIDRα1.4) on P. falciparum-infected erythrocytes (Plasmodium falciparum HB3 (HB3VAR03), UniProt A0A0L7KL67, strain); experiment: flow cytometry on cells
[4] = biological target: T1, single CIDRα1.4 domain of HB3VAR03 …; experiment: crystal structure
[5] = biological target: T2, three-domain protein of HB3VAR03 PfEMP1 …; experiment: cryo-EM structure
[6] = biological target: T3, three-domain protein of IT4VAR22 PfEMP1 …; experiment: cryo-EM structure

Binder	binding result [1]	binding result [2]	binding result [3]	binding result [4]	binding result [5]	binding result [6]
B1	binds	no binding (tested: 100 μg/mL)	binds	–	–	–
B2	–	–	–	binds	binds	binds
B3	binds	no binding (tested: 100 μg/mL)	binds	–	–	–
B4	–	–	–	–	–	binds
